The data set in a line: background-corrected fluorescence of 3'-dye-labeled ssDNA relative to brightest sequence (3'-GCGCG) (fraction); higher = brighter dye fluorescence (less quenching). An outline of the steps:
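Subtracting background from unlabeled oligos and scaling to the brightest sequence gave the reported fluorescence. Single-stranded DNA bearing a 3' Cy3 or Cy5 dye next to each of 1024 permuted pentamers was assembled on glass slides by light-directed phosphoramidite synthesis. Following a 2 h r.t. acetonitrile wash, slides were scanned at 532 or 635 nm before and after overnight ethylenediamine/ethanol deprotection, and values were averaged over 10 features per array and at least 3 syntheses.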

± gives the standard error.

As for “TTTTTTCATCATCAGCATCATTTTTTTTTTTTTTTGGGTG [GTGGG]”, the background-corrected fluorescence by setting is: (dye: Cy3 (3' terminal)) 0.627 ± 0.025; (dye: Cy5 (3' terminal)) 0.428 ± 0.024.
For “TTTTTTGATGATCATGCTGCTTTTTTTTTTTTTTTCCGAA [AAGCC]”, in that order: 0.647 ± 0.047 and 0.49 ± 0.031.
For “TTTTTTCATGAGCATGATCATTTTTTTTTTTTTTTGCTCG”, in that order: 0.517 ± 0.015 and 0.375 ± 0.033.
The like results for “TTTTTTCATGCGCAGCATCATTTTTTTTTTTTTTTGATTG [GTTAG]” were, in that order, 0.543 ± 0.0077 and 0.355 ± 0.024.
Regarding “TTTTTTGCTGCTGAGCATGATTTTTTTTTTTTTTTAACTC [CTCAA]”, the background-corrected fluorescence runs as follows: (dye: Cy3 (3' terminal)) 0.418 ± 0.028; (dye: Cy5 (3' terminal)) 0.293 ± 0.019.
The like results for “TTTTTGCATGAGCATGCTCATTTTTTTTTTTTTTTTCTAG [GATCT]” were, in that order, 0.52 ± 0.027 and 0.401 ± 0.031.
For “TTTTTTGCTGAGCAGCATGCTTTTTTTTTTTTTTTACTTA [ATTCA]”, in that order: 0.493 ± 0.06 and 0.379 ± 0.027.
The like results for “TTTTTTGATGATGATGCTCATTTTTTTTTTTTTTTCCCAG [GACCC]” were, in that order, 0.504 ± 0.0073 and 0.374 ± 0.025.
With “TTTTTTCAGCATGATCATGATTTTTTTTTTTTTTTGTCGC [CGCTG]”, the background-corrected fluorescence by setting is: (dye: Cy3 (3' terminal)) 0.556 ± 0.034; (dye: Cy5 (3' terminal)) 0.444 ± 0.032.
For “TTTTTTCATCAGCATCATGCTTTTTTTTTTTTTTTGGTGA [AGTGG]”, in that order: 0.627 ± 0.026 and 0.555 ± 0.04.
For “TTTTTTGCGCATGATGCTGCTTTTTTTTTTTTTTTATCAA [AACTA]”, in that order: 0.522 ± 0.012 and 0.411 ± 0.035.
The like results for “TTTTTTGCTGCTCATGATGCTTTTTTTTTTTTTTTAAGCA [ACGAA]” were, in that order, 0.571 ± 0.014 and 0.451 ± 0.026.
For “TTTTTTGCGCATGATCATGCTTTTTTTTTTTTTTTATCGA [AGCTA]”, the background-corrected fluorescence runs as follows: (dye: Cy3 (3' terminal)) 0.635 ± 0.0066; (dye: Cy5 (3' terminal)) 0.517 ± 0.043.
For “TTTTTTGAGCATGATCATCATTTTTTTTTTTTTTTCTCGG [GGCTC]”, in that order: 0.641 ± 0.034 and 0.508 ± 0.037.
For “TTTTTTGCTGCTGCTGATCATTTTTTTTTTTTTTTAAACG [GCAAA]”, in that order: 0.559 ± 0.023 and 0.426 ± 0.028.
As to “TTTTTTGCTCATGCTGATCATTTTTTTTTTTTTTTAGACG [GCAGA]”, the background-corrected fluorescence reads like this: (dye: Cy3 (3' terminal)) 0.563 ± 0.031; (dye: Cy5 (3' terminal)) 0.443 ± 0.033.
For “TTTTTTGCTCAGCATGCTGATTTTTTTTTTTTTTTAGTAC [CATGA]”, in that order: 0.485 ± 0.006 and 0.371 ± 0.027.
The like results for “TTTTTGCATGCTCATCATGATTTTTTTTTTTTTTTTAGGC [CGGAT]” were, in that order, 0.617 ± 0.027 and 0.464 ± 0.026.
For “TTTTTTGATGCTGCTCATGCTTTTTTTTTTTTTTTCAAGA [AGAAC]”, in that order: 0.683 ± 0.036 and 0.543 ± 0.026.
Regarding “TTTTTGCATGATGATGATGCTTTTTTTTTTTTTTTTCCCA [ACCCT]”, the background-corrected fluorescence by setting is: (dye: Cy3 (3' terminal)) 0.441 ± 0.036; (dye: Cy5 (3' terminal)) 0.346 ± 0.035.
For “TTTTTTCATGATCATCATGATTTTTTTTTTTTTTTGCGGC [CGGCG]”, in that order: 0.658 ± 0.028 and 0.506 ± 0.029.
The like results for “TTTTTTCAGCATGCGCATGATTTTTTTTTTTTTTTGTATC [CTATG]” were, in that order, 0.417 ± 0.024 and 0.309 ± 0.019.
For “TTTTTGCATCATGATGCTCATTTTTTTTTTTTTTTTGCAG [GACGT]”, in that order: 0.526 ± 0.033 and 0.425 ± 0.029.
“TTTTTTCATGAGCAGCATGCTTTTTTTTTTTTTTTGCTTA [ATTCG]”: the background-corrected fluorescence is, setting by setting: (dye: Cy3 (3' terminal)) 0.534 ± 0.026; (dye: Cy5 (3' terminal)) 0.408 ± 0.03.
The like results for “TTTTTTGCTGATCATGATGCTTTTTTTTTTTTTTTACGCA” were, in that order, 0.525 ± 0.032 and 0.445 ± 0.028.
As for “TTTTTTGCGCAGCATCATGCTTTTTTTTTTTTTTTATTGA [AGTTA]”, the background-corrected fluorescence is, setting by setting: (dye: Cy3 (3' terminal)) 0.643 ± 0.018; (dye: Cy5 (3' terminal)) 0.555 ± 0.03.
For “TTTTTTCATGATCAGCATCATTTTTTTTTTTTTTTGCGTG [GTGCG]”, in that order: 0.577 ± 0.012 and 0.439 ± 0.023.
Turning to “TTTTTTCAGCATGAGCATGCTTTTTTTTTTTTTTTGTCTA [ATCTG]”, the background-corrected fluorescence reads like this: (dye: Cy3 (3' terminal)) 0.539 ± 0.01; (dye: Cy5 (3' terminal)) 0.381 ± 0.021.
For “TTTTTTGAGCATGCTGATCATTTTTTTTTTTTTTTCTACG [GCATC]”, in that order: 0.565 ± 0.027 and 0.416 ± 0.022.
Turning to “TTTTTGCAGCATCATCAGCATTTTTTTTTTTTTTTTTGGT [TGGTT]”, the background-corrected fluorescence is 0.689 ± 0.017 (dye: Cy3 (3' terminal)) and 0.593 ± 0.047 (dye: Cy5 (3' terminal)).
The like results for “TTTTTGCATCAGCATCAGCATTTTTTTTTTTTTTTTGTGT” were, in that order, 0.603 ± 0.025 and 0.497 ± 0.026.
The like results for “TTTTTTCATCATGCTGCTGCTTTTTTTTTTTTTTTGGAAA [AAAGG]” were, in that order, 0.642 ± 0.038 and 0.534 ± 0.035.
As to “TTTTTTGATGCGCATGCTGATTTTTTTTTTTTTTTCATAC”, the background-corrected fluorescence was 0.443 ± 0.024 (dye: Cy3 (3' terminal)) and 0.314 ± 0.032 (dye: Cy5 (3' terminal)).
For “TTTTTTCAGCATGCTGCTGCTTTTTTTTTTTTTTTGTAAA [AAATG]”, in that order: 0.618 ± 0.014 and 0.513 ± 0.028.
Regarding “TTTTTTGATGATGCTGCTCATTTTTTTTTTTTTTTCCAAG [GAACC]”, the background-corrected fluorescence by setting is: (dye: Cy3 (3' terminal)) 0.521 ± 0.029; (dye: Cy5 (3' terminal)) 0.384 ± 0.029.
On to “TTTTTTCATGATGATGATCATTTTTTTTTTTTTTTGCCCG”, for which the background-corrected fluorescence runs as follows: (dye: Cy3 (3' terminal)) 0.488 ± 0.0067; (dye: Cy5 (3' terminal)) 0.394 ± 0.045.
For “TTTTTTGCTGATCATGAGCATTTTTTTTTTTTTTTACGCT [TCGCA]”, in that order: 0.5 ± 0.065 and 0.391 ± 0.029.
The like results for “TTTTTGCAGCATCATGATGCTTTTTTTTTTTTTTTTTGCA [ACGTT]” were, in that order, 0.546 ± 0.025 and 0.456 ± 0.039.
For “TTTTTTCATCATCAGCATGATTTTTTTTTTTTTTTGGGTC [CTGGG]”, in that order: 0.511 ± 0.03 and 0.377 ± 0.024.
Take “TTTTTGCATGATCATGCTCATTTTTTTTTTTTTTTTCGAG [GAGCT]”: the background-corrected fluorescence (dye: Cy3 (3' terminal)) came out at 0.616 ± 0.029 and the background-corrected fluorescence (dye: Cy5 (3' terminal)) is 0.478 ± 0.035.
The like results for “TTTTTTGCTCATGCTCATGCTTTTTTTTTTTTTTTAGAGA” were, in that order, 0.633 ± 0.031 and 0.519 ± 0.029.
For “TTTTTTCATCAGCATCATGATTTTTTTTTTTTTTTGGTGC [CGTGG]”, in that order: 0.522 ± 0.0057 and 0.419 ± 0.027.
In the case of “TTTTTTGCGCATCATGCTCATTTTTTTTTTTTTTTATGAG [GAGTA]”, the background-corrected fluorescence runs as follows: (dye: Cy3 (3' terminal)) 0.602 ± 0.036; (dye: Cy5 (3' terminal)) 0.466 ± 0.04.
For “TTTTTTGAGCATCATGATCATTTTTTTTTTTTTTTCTGCG [GCGTC]”, in that order: 0.589 ± 0.024 and 0.483 ± 0.051.
For “TTTTTTGATCAGCAGCATCATTTTTTTTTTTTTTTCGTTG [GTTGC]”, in that order: 0.533 ± 0.023 and 0.422 ± 0.051.
The like results for “TTTTTTGATCATGCTGATGATTTTTTTTTTTTTTTCGACC [CCAGC]” were, in that order, 0.4 ± 0.016 and 0.324 ± 0.03.
For the sequence “TTTTTTGAGCATCATGCTGCTTTTTTTTTTTTTTTCTGAA [AAGTC]”, the background-corrected fluorescence by setting is: (dye: Cy3 (3' terminal)) 0.575 ± 0.026; (dye: Cy5 (3' terminal)) 0.514 ± 0.029.
The like results for “TTTTTTGCTGCGCATCAGCATTTTTTTTTTTTTTTAATGT [TGTAA]” were, in that order, 0.616 ± 0.033 and 0.507 ± 0.031.
The like results for “TTTTTTCATCATGATGCTGATTTTTTTTTTTTTTTGGCAC [CACGG]” were, in that order, 0.436 ± 0.03 and 0.336 ± 0.03.
For “TTTTTTGCTGCTGATGATGCTTTTTTTTTTTTTTTAACCA [ACCAA]”, in that order: 0.492 ± 0.017 and 0.375 ± 0.053.
Take “TTTTTTGATCAGCAGCAGCATTTTTTTTTTTTTTTCGTTT [TTTGC]”: the background-corrected fluorescence reads like this: (dye: Cy3 (3' terminal)) 0.528 ± 0.017; (dye: Cy5 (3' terminal)) 0.393 ± 0.026.
The like results for “TTTTTGCATCATGCTCATGATTTTTTTTTTTTTTTTGAGC [CGAGT]” were, in that order, 0.556 ± 0.024 and 0.422 ± 0.08.
The like results for “TTTTTTGCTCATGATCATGCTTTTTTTTTTTTTTTAGCGA” were, in that order, 0.708 ± 0.033 and 0.58 ± 0.052.
For “TTTTTTGCTGCTGCTGATGATTTTTTTTTTTTTTTAAACC [CCAAA]”, in that order: 0.403 ± 0.035 and 0.29 ± 0.015.
In turn, “TTTTTTGCTCATCAGCATGATTTTTTTTTTTTTTTAGGTC [CTGGA]” displayed a background-corrected fluorescence (dye: Cy3 (3' terminal)) of 0.459 ± 0.014 and a background-corrected fluorescence (dye: Cy5 (3' terminal)) of 0.376 ± 0.019.
For “TTTTTTCATGCTGCGCATGATTTTTTTTTTTTTTTGAATC [CTAAG]”, in that order: 0.433 ± 0.031 and 0.311 ± 0.025.
For “TTTTTTCAGCATGCTGATCATTTTTTTTTTTTTTTGTACG”, in that order: 0.561 ± 0.02 and 0.475 ± 0.031.
The like results for “TTTTTGCAGCATCATGCTGATTTTTTTTTTTTTTTTTGAC [CAGTT]” were, in that order, 0.461 ± 0.024 and 0.354 ± 0.04.

For the origin of these results see the supplement of paper PMC9428881.
